Source: US20130171069A1
Ends that are not written are not given here.

Biological target: synthetic amylospheroid (synthetic ASPD) (UniProt P05067)
Experiment: SPR; biotinylated peptide on the chip, ASPD as ligand

Binder	Kd [nM]	kon [M⁻¹ s⁻¹]
HFNWYNLWRVQY-biotin [C-terminal biotinylated AAT01 …]	57.7	7640
HLNWWHSWYPAR-biotin [C-terminal biotinylated AAT02 …]	82.4	–
HLNWLSWFPSRH-biotin [C-terminal biotinylated AAT03 …]	88.5	–
